Consider one molecule from article PMC7781312 (bioRxiv, 2021).

For this test, the target named is SARS-CoV-2 2P S ectodomain trimer (SARS-CoV-2 (YP_009724390), UniProt P0DTC2, stabilised). The test can be described thus: BLI.

B1: B6 monoclonal antibody (recombinant IgG with human constant regions) (antibody, V domains shown)
VH: EVQLQQSGPVLVKPGASVRMSCKASGYTITDYYLNWVKQSHGKSLEWLGVLNPYSGGSLYSQTFKGKATLTVDRSSSTAYLELNSLTSEDSAVYYCARQLGRGNGLDYWGQGTSVTVSS
VL: NIMMTQSPSSLAVSAGEKVTMSCKSSQSVLHSSDQKNYLAWYQQKPGQSPKLLIYWASTRESGVPDRFTGSGSGTDFTLTISSVQAEDLAVYFCHQYLSSYTFGGGTKLEIK
As to B1, the binding result is reported as “binds”.
